The text below walks through data of article PMC7352912.

By stoichiometry N is commonly meant a count of units in the complex or per binding partner.

For the assay, the target named is F-actin of ghost muscle fibres (rabbit (endogenous in m. psoas fibres)) (UniProt P68135). The experiment in a line: fluorescence intensity of labelled proteins bound in ghost muscle fibres; actin-Tpm-S1 complexes in ghost fibres; rigor (no nucleotide) or MgADP; with MgATP the ratio of S1 to actin was reduced. Conditions: for stoichiometry N: scale: actin per tropomyosin.

recombinant wild-type γ-tropomyosin (Tpm3.12) (natural protein), sequence (Q5KR47 whole entry): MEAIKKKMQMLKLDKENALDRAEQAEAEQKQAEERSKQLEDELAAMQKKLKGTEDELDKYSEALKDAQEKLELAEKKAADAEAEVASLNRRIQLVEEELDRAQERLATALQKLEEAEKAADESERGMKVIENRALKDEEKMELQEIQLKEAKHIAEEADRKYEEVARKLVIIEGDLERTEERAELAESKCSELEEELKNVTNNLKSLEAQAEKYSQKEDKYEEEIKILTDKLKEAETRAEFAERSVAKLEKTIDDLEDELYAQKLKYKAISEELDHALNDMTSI
myosin subfragment-1, sequence (P02602 whole entry, looked up, the tested form may be a part): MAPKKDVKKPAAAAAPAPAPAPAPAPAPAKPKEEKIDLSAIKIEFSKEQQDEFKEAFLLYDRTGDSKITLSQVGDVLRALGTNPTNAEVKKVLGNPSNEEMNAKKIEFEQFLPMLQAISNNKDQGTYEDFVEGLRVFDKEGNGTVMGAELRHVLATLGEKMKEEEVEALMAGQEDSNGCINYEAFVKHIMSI

For “E173A mutant γ-tropomyosin (Tpm3.12) (natural protein)”, the stoichiometry N was determined as 7.

With “myosin subfragment-1 (from UniProt P02602 1-192) (complex)”, the stoichiometry N (actin per S1 (molar ratio 1:2.4)) came to 2.4. Regarding “recombinant wild-type γ-tropomyosin (Tpm3.12) (natural protein)”, the stoichiometry N is 7.
